Assay results: US20180291343

Experiments:
[1] = system: TALEN Beta2M T01 LEFT (artificial); assay: cell_activity; details: primary T cells, 10 ug TALEN mRNA as pair with right monomer, 3 days post electroporation; 38% at 2 ug; untransfected nearly 100% positive
[2] = system: TALEN Beta2M T01 RIGHT (artificial); assay: cell_activity; details: primary T cells, 10 ug TALEN mRNA as pair with left monomer, 3 days post electroporation; 38% at 2 ug; untransfected nearly 100% positive

Row | Sequence | activity (% beta2-m negative cells) [1] | activity (% beta2-m negative cells) [2]
1 | TGGCCTTAGCTGTGCTC (double strand) [B2M T01 target, left half-site] | 80 | 
2 | TTCTGGCCTGGAGGCTA (double strand) [B2M T01 target, right half-site] |  | 80
